Measured values: paper PMC5149402

Biological target: rat GluD2 ATD tetramerised with an engineered tetrameric coiled-coil zipper based on GCN4 (rat | not stated)

stoichiometry N: 4
Substance: rat GluD2 ATD tetramerised with an engineered tetrameric coiled-coil zipper based on GCN4 (domain or fragment)
